Kd data for three substances are collected here from publication PMC2726290, “Decoding of Methylated Histone H3 Tail by the Pygo-BCL9 Wnt Signaling Complex” (Molecular Cell, 2008).

Common to all, as to experiment: ITC; protein dialysed into 100 mM NaCl, 25 mM Tris-HCl (pH 8.0), 10 uM ZnCl2, 2 mM beta-mercaptoethanol; histone peptides with free PHD or PHD-HD1 complex; one-site model
In experiment [1] the target is dPHD-HD1 complex (Drosophila Pygo PHD 747-808 with Lgs HD1 316-350) (Drosophila) (UniProt Q9V9W8).
Sequence of dPHD-HD1 complex (Drosophila Pygo PHD 747-808 with Lgs HD1 316-350) (Drosophila) (Q9V9W8 747-808, chain 1 of 2): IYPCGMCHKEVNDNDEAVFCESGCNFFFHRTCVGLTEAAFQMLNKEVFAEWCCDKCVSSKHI
Sequence of dPHD-HD1 complex (Drosophila Pygo PHD 747-808 with Lgs HD1 316-350) (Drosophila) (Q961D9 316-350, chain 2 of 2, further chain): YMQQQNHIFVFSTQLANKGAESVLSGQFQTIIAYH
In experiment [2] the target is hPygo1 PHD finger (amino acids 333-402), free (human) (UniProt Q9Y3Y4).
Sequence of hPygo1 PHD finger (amino acids 333-402), free (human) (Q9Y3Y4 333-402): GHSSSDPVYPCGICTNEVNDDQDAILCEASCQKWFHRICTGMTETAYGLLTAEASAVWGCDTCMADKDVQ
Experiment [3] deals with hPHD-HD1 complex (hPygo1 PHD 333-402 with hBCL9 HD1) (human) (UniProt Q9Y3Y4).
Sequence of hPHD-HD1 complex (hPygo1 PHD 333-402 with hBCL9 HD1) (human) (Q9Y3Y4 333-402, chain 1 of 2): as the sequence (Q9Y3Y4 333-402) above
Sequence of hPHD-HD1 complex (hPygo1 PHD 333-402 with hBCL9 HD1) (human) (O00512 177-205, chain 2 of 2, further chain): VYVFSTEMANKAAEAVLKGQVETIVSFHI

pKd: −log10 of the molar value.

A word on the pKd: it is −log10 of the Kd, conventionally taken in molar units. In the case of “H3K4me1 15-mer histone H3 tail peptide (from UniProt P68431 2-16)”, the pKd was 4.66 in experiment [1], 5.05 in experiment [2] and 5.54 in experiment [3].
The matching figures for “H3K4me2 15-mer histone H3 tail peptide (from UniProt P68431 2-16)”: 4.89, 5.62 and 6.05.
For the substance “H3K4me3 15-mer histone H3 tail peptide (from UniProt P68431 2-16)”, in experiment [1], the pKd was 4.64.
